This note sets out measurements from article PMC3964903.

The target in this experiment is calcium/calmodulin-dependent protein kinase II (CaMKII) (mouse (endogenous in hippocampal slices)) (UniProt P11798).
Chain of UniProt P11798 (P11798 whole entry): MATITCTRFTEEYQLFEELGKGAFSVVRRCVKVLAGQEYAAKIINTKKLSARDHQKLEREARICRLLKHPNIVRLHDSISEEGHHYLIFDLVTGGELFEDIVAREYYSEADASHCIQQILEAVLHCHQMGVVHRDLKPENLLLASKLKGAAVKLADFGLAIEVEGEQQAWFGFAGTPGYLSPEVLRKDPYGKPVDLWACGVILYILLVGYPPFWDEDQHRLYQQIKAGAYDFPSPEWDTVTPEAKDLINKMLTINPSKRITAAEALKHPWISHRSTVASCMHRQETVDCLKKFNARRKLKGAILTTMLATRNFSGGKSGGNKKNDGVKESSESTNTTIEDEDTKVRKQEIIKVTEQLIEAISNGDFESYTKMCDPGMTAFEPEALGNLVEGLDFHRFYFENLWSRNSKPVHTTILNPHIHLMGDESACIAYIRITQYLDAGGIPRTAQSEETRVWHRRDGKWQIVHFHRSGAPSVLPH

For the substance “NMDA receptor (NMDAR) (from UniProt P35438 19-938; Q01097 27-1482) (complex)”, the CaMKII relative activity (Cyclex CaMKII assay kit) after 10 min OGD with Tat-GluN2B, compared with control (relative to control) is 0.97 and the amplitude of NMDAR-mediated i-LTP (NMDA fEPSPs) in hippocampal slices exposed to OGD for 10 min with Tat-GluN2B, compared with OGD alone (relative to OGD) was 0.73.
